Numbering of substitutions follows the chain as printed.
B1: C507 (antibody, V domains shown)
VH: EVQLVESGGGVVQPGRSLRLSCAASGFTFSSYAIHWVRQAPGKGLEWVAVISFDGSNKYYRDSVKGRFTISRDNGKNTLYLQMNSLRAEDTAVYYCAKAALGYCTNGVCYCDNWGQGTLVTVSS
VL: NFMLTQPHSVSESPGKTVTISCTGSSGSIASNYVQWYQQRPGSAPTTVIYEDNQRPSGVPDRFSGSIDSSSNSASLSISGLKTEDEADYYCQSYDINSLWVFGGGTRLTVL
B2: C503 (antibody, V domains shown)
VH: QVQLQESGPGLVQPSGTLSLSCTVTGGSISSNNWWSWVRQSPVKGLEWIGEIYHNGNINYNPSLKSRVTMSIDKSKNHFSLKLSSVTAADTAVYYCARGDVLDWFDPWGQGTLVTVS
VL: QSALTQPASVSGSPGQSITFSCTGTSSDVGAYNYISWYQQHPGKAPKLMIYDVNNRPSGVSRRFSGSKSGNTASLTISGLQSEDEADYFCSSYAGNSTVRFGGGTKLTVL
B3: C510 (antibody, V domains shown)
VH: QVQLQQWGAGLLKPSETLSRTCAVYGGSFSGYYWSWFRQSPGKGLEWIGEINHSGSTNYNPSLKNRVTISVDTSKNQFSLMLSSVTAADTAVYYCARGGFGVVINYYYSGMDVWGRGTTVTVSS
VL: not shown
B4: C505 (antibody, V domains shown)
VH: EVQLLESGGGLVQPGGSLRLSCADSGFSFSTYGMSWVRQAPGKGLEWVSTISGSGDNTYHADSVKGRFTISRDNSKNTLYLQMNSLRAEDTAVYYCAKNIAEMSTFDDYFYYYGMDVWGQGTTVTVSS
VL: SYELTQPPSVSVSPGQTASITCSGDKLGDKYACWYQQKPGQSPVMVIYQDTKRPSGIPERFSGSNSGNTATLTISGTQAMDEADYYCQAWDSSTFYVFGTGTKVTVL
B5: C515 (antibody, V domains shown)
VH: EVQLVESGGGLVQPGGSLRLSCAASGFIVSSNYMSWVRQAPGKGLEWVSILYSGGSTYYADSVKGRFTISRDNSKNTLYLQMNSLRAEDTAVYYCARDLVVYGADYWGQGTLVTVSS
VL: DIQLTQSPSFLSASVGDRVTITCRASQGISSYLAWYQQKPGKAPKLLIYAASTLQSGVPSRFSGSGSGTEFTLTISSLQPEDFATYYCQQLNSYPPPFGGGTKVEIK
B6: C511 (antibody, V domains shown)
VH: EVQLVESGGGLVQPGGSLRLSCAATEITVSSNYMTWVRQAPGKGLEWVSVIYPGGSTFYADSVKGRFSISRDNSKNTLYLQMNSLRAEDTAVYYCARDLVVYGLDCWGQGTLVTVSS
VL: B5 VL with S93T
B7: C517 (antibody, V domains shown)
VH: EVQLVESGGGLVQPGGSLRLSCAASEFIVSRNYMSWVRQAPGKGLEWVSLIYSGGSTYYADSVKGRFTISRDNSKNTLYLQMNSLRAEDTAMYYCARDIAGRLDYWGQGTLVTVSS
VL: DIQMTQSPSSLSASVGDRVTITCQASQDISKYLNWYQQKPGKAPKLLIYDASNLETGVPSRFSGSGSGTDFTFTISSLQPEDFATYYCQHYDSLSRLTFGGGTKVEIK
B8: C514 (antibody, V domains shown)
VH: B7 VH with S30T, S53P, Y58F, Y79F, Q81H, M92V, I99L
VL: B7 VL with S30N, K31N, Y32F, F83I, T85I, H90Q
B9: C509 (antibody, V domains shown)
VH: QVQLQESGPGLVKPSGTLSLTCAVSGGSISSSNWWSWVRQPPGKGLEWIGEIYNSGSTNYNPSLKSRVTILVDKSKNQFSLKLSSVTAADTAVYYCAGSYSNYIGGVWFDPWGQGTLVTVSS
VL: EIVLTQSPATLSLSPGERATLSCRASQSVSTYLAWYQQKPGQAPRLLIYDASNRATGIPARFSGSGSGTDFTLTISSLEPEDFAVYYCQQRNNWLTFGGGTKVEIK
B10: C504 (antibody, V domains shown)
VH: QVQLQESGPGLVKPSETLSLTCTVSGGSISSSYWNWIRQSPGKGLEWIGYIYYDGYTTFNPSLKSRVTISVDTSKNQFSLKLSSVTAADTAFYYCAAGLKGRSSSWYEYWGQGTLVTVSS
VL: DIQMTQSPSSLSASVGDRVTITCRASQSISSYLNWYQQKPGKAPKLLIYATSSLQSGVPSRFSGSGSGTDFTLTITSLQPEDFATYYCQQTYSSPHTFGQGTKLEIK
B11: C516 (antibody, V domains shown)
VH: QVQLVQSGAEVKKPGSSVKVSCKASGGTFSSYAISWVRQAPGQGLEWMGRIIPMLVIATYARKFQGRVTITADKSTSTAYMELSSLRSEDTAVYYCARGVVAATPGNFDIWGQGTMVTVSS
VL: EIVMTQSPATLSVSPGERATLSCRASQSVSSNLAWYQQKPGQAPRLLIYGASTRATGIPARFSGSGSGTEFTLTISSLQSEDFAVYYCQQYNNGLTFGGGTKVEIK
B12: C502 (antibody, V domains shown)
VH: QVQLVQSGAEVKKPGSSVKVSCKASGDTFSSHAINWVRQAPGQGLEWMGRSIPMLGVTTSAQKFKGRVTITADHSTSTVFMDLSSLRSDDTAIYYCARGVVGATPGSFDLWGQGTMVTVSS
VL: B11 VL with E17K, S30R, K39R, G50D, S52A, A60T, N92D
B13: C077 (antibody, V domains shown)
VH: QVQLVQSGAEVKKPGASVKVSCKASGYTFTSYAMHWVRQAPGQRLEWMGWINTDNGNTKYSQKFQGRVTITRDTSASTAYMELSSLRSEDTAVYYCAREGALTNWFDPWGQGTLVTVSS
VL: SYELTQPPSVSVAPGQTARIPCGGNNIGSKSVHWYQQKPGQAPVLVVYDDSDRPSGIPERFSGSNSGNTATLTISRVEAGDEADYYCQVWDSSSDLHVVFGGGTKLTVL
B14: C513 (antibody, V domains shown)
VH: EVQLLESGGGLVQPGGSLRLSCVASGFSFSTYAMSWVRQAPGQGLEWVSTITGTSIGTYYADSVKGRFTISRDNSKNTVFLQMKSLRAEDAAVYYCANHPLASGDEYYYYYMDVWGKGTTVTVSS
VL: EIVLTQSPDTLSLSPGERATLSCRASQSVHSKQLAWYQQKPGQAPRLLIYGASSRATGIPDRFSGSGSGTDFTLTISRLEPEDFAVYYCQQYGSIRALTFGGGTKVEIK
B15: C597 (antibody, V domains shown)
VH: QVQLVQSGPEVKKPGTSVKVSCKASGFTFTNSAVQWVRQSRRQRLEWIGWIVVGSGNTNYAQKFQERVTITRDMSTSTAYMELSSLRSEDTAVYYCAAVDCNSTSCYDAFDIWGQGTMVTVSS
VL: EIVLTQSPGTLSLSPGERATLSCRASQSFRSSYLAWYQQKPGQAPRLLIYGASSRATGIPDRFSGSGSGSDFTLTISRLEPEDFAVYYCQQYDISPWTFGQGTKVEIK
B16: C598 (antibody, V domains shown)
VH: QVQLVQSGPEVKKPGTSVKVSCKASGFTFSSSAVQWVRQARGQRLEWIGWIVVGSGNTNYAQKFQERVTITRDMSTSTAYMELSSLRSEDTAVFYCAAPYCNVTTCFDGFNIWGRGTMVTVSS
VL: B15 VL with F29V, L34F, G51A, S70T, V86L, D93G, I94S
B17: C132 (antibody, V domains shown)
VH: QVQLQESGPGLVKPSGTLSLTCAVSGGSISSNNWWSCVRQPPGKGLEWIGEIYHSGSTNYNPSLKSRVTISVDKSKNQFSLKLSSVTAADTAVYYCARGGDTAMGPEYFDYWGQGTLVTVSS
VL: QSALTQPASVSGSPGQSITISCTGTSSDVGGYNYVSWYQQHPGKAPKLMIYDVSNRPSGVSNRFSGSKSGNTASLTISGLQAEDEADYYCSSYTSSSTLLFGGGTKLTVL
B18: C512 (antibody, V domains shown)
VH: B17 VH with G26A, C37W, I52V, S55N, S57N, T58I, I70L, R98K, T102R, Y111S
VL: B17 VL with G31A, Y32N, S54N, N55E, A82T, Y93F, T94A
B19: C506 (antibody, V domains shown)
VH: EVQLVESGGGLVQPGGSLRLSCAASGFTFSSYDMHWVRQGTGKGLEWVSVIGTAGDAYYPGSVKGRFTISRENAKNSLYLQMNSLRAGDTAVYYCARMVYDSSGFKGYFDLWGRGTLVTVSS
VL: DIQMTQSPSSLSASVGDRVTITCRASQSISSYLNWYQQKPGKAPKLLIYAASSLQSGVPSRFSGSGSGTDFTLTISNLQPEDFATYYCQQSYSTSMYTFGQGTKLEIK
B20: C073 (antibody, V domains shown)
VH: QLQLQESGPGLVKPSETLSLTCTVSGASIPSSTSYWGWIRQPPGKGLEWIGSIYYTGSTYYNPSLKSRVTISVDTSKNHFSLILSSVTAADTAVYYCARRSITLAGRDCLDFWGQGTLVTVSS
VL: DIQLTQSPSSLSASVGDRLTITCRASQSITTSLNWYQQKPGKAPKLLIYAASSLQSGVPSRFSGSGSGTDFTLAISSLQPEDFATYYCQQSYIPLLTFGGGTKVDIK
B21: C545 (antibody, V domains shown)
VH: EVQLLESGGGLVKPGGSLRLSCAASGFTFSDYSMTWVRQAPGKGLEWVSFISSSSTYIYYADSVKGRFTISRDNAKSSLYLQMNRLRAEDTAVYYCTRVQVGARGWADYWGQGTLVTVSS
VL: NFMLTQPLSVSESPGKTVTISCTRSSGSIASNYVQWYQQRPGGAPTTVIYEDTQRPSGVPDRFSGSIDSSSNSASLTISGLKTEDEADYYCQSCDTINWVFGGGTKLTVV
B22: C548 (antibody, V domains shown)
VH: QVQLVQSGAEVKKPGSSVKVSCKASGGTFSSYAISWVRQAPGQGLEWMGGIIPIFGTANYAQKFQGRVTITADESTSTAYMELSSLRSEDTAVYYCARREAYGPRDYYYYYGMDVWGQGTTVTVSS
VL: QSALTQPPSASASLGASVTLTCTLSSGYSNYKVDWYQQRPGKGPRFVMRVGTGGIVGSKGDGIPDRFSVLGSGLNRYLTIKNIQEEDESDYHCGADQGSGSNFVGVFGGGTKLTVL
B23: C549 (antibody, V domains shown)
VH: QVQLVQSGAEVKKPGSSVKVSCKASGGTFSTSAISWVRQAPGQGLEWMGGIIPFFGTPNYAQKFQGRVTIIADESTTTAYMELSGLRFEDSAVYYCARREPYGPRDYYYFFGMDVWGPGTTVTVSS
VL: QSALTQPPFASASLGASVTLTCTLSSDYSYYKVDWYQQRPGKGPRFVIRVGPGGIVGSKGDGFPDRFSVLGSGLNRSLTINNIQEEDEGDYHCGADEGSGGTFVGVFGGGTKLTV
B24: C546 (antibody, V domains shown)
VH: EVQLLESGGGLVHPGGSLRLSCAASGFTFSTYAMHWVRQAPGKGLEWVSAISGSGTGTFYADSVKGRFSISRDNSKNTLYLQMNSLRAEDTAVYYCATERIAVSDTRMYNWFDPWGQGTLVTVSS
VL: DIQMTQSPSSLSASVGDRVTLTCRASQGISTYLNWYQQKPGKAPNLLIYAASSLQSGVPSRFSGSGSGTDFTLTISSLQPEDFATYYCQQSYSAPPWTFGQGTKVEIK

Target: SARS-CoV-2 spike receptor binding domain (RBD), S protein residues 319-539 (SARS-CoV-2, UniProt P0DTC2 319-539)
Assay: ELISA on coated RBD

B1 and B2 are within 1.5-fold of each other in EC50: 5.6 ng/mL for the first, 6.48 ng/mL for the second.

Compared with B3, B4 is 1.5-fold higher in EC50: 5.94 ng/mL for the first, 9.08 ng/mL for the second.

B5 and B6 are within 1.5-fold of each other in EC50: 1.73 ng/mL for the first, 1.33 ng/mL for the second.

B7 and B8 are within 1.5-fold of each other in EC50: 0.87 ng/mL for the first, 0.82 ng/mL for the second.

B9 and B10 are within 1.5-fold of each other in EC50: 4.44 ng/mL for the first, 6.55 ng/mL for the second.

B11 and B12 are within 1.5-fold of each other in EC50: 5.72 ng/mL for the first, 6.48 ng/mL for the second.

Compared with B13, B14 is 35-fold lower in EC50: 45.9 ng/mL for the first, 1.31 ng/mL for the second.

B15 and B16 are within 1.5-fold of each other in EC50: 3.77 ng/mL for the first, 3.78 ng/mL for the second.

Going from B17 to B18, the EC50 falls from 3.56 ng/mL to 1.68 ng/mL (2.1-fold).

B19 and B20 are within 1.5-fold of each other in EC50: 16 ng/mL for the first, 20.6 ng/mL for the second.

Target: SARS-CoV-2 spike protein receptor binding domain (RBD) (SARS-CoV-2, UniProt P0DTC2 319-539)
Assay: ELISA, RBD coated on plate, mAb titrated

Compared with B21, B22 is 2.1-fold lower in EC50: 3.68 ng/mL for the first, 1.72 ng/mL for the second.

Compared with B23, B24 is 2-fold higher in EC50: 1.76 ng/mL for the first, 3.57 ng/mL for the second.

— patent publication US20220195015A1 (published 2022)
